Assay: soluble on expression in E. coli; label from the status in PepcDB or PDB records

| Sequence | soluble on expression in E. coli |
| --- | --- |
| AAGTAKGHNPTEFPTIYDASSAPTAANTTVGIITIGGVSQTLQDLQQFTSANGLASVNTQTIQTGSSNGDYSDDQQGQGEWDLDSQSIVGSAGGAVQQLLFYMADQSASGNTGLTQAFNQAVSDNVAKVINVSLGWCEADANADGTLQAEDRIFATAAAQGQTFSVSSGDEGVYECNNRGYPDGSTYSVSWPASSPNVIAVGGTTLYTTSAGAYSNETVWNEGLDSNGKLWATGGGYSVYESKPSWQSVVSGTPGRRLLPDISFDAAQGTGALIYNYGQLQQIGGTSLASPIFVGLWARLQSANSNSLGFPAASFYSAISSTPSLVHDVKSGNNGYGGYGYNAGTGWDYPTGWGSLDIAKLSAYIRSNGFGH | soluble |
| AANDNNVEWNGLFHDQGPLFDNAPEPTSTQSVTLKLRTFKGDITSANIKYWDTADNAFHWVPMVWDSNDPTGTFDYWKGTIPASPSIKYYRFQINDGTSTAWYNGNGPSSTEPNADDFYIIPNFKTPDWLKNGVMYQIFPDRFYNGDSSNDVQTGSYTYNGTPTEKKAWGSSVYADPGYDNSLVFFGGDLAGIDQKLGYIKKTLGANILYLNPIFKAPTNHKYDTQDYMAVDPAFGDNSTLQTLINDIHSTANGPKGYLILDGVFNHTGDSHPWFDKYNNFSSQGAYESQSSPWYNYYTFYTWPDSYASFLGFNSLPKLNYGNSGSAVRGVIYNNSNSVAKTYLNPPYSVDGWRLDAAQYVDANGNNGSDVTNHQIWSEFRNAVKGVNSNAAIIGEYWGNANPWTAQGNQWDAATNFDGFTQPVSEWITGKDYQNNSASISTTQFDSWLRGTRANYPTNVQQSMMNFLSNHDITRFATRSGGDLWKTYLALIFQMTYVGTPTIYYGDEYGMQGGADPDNRRSFDWSQATPSNSAVALTQKLITIRNQYPALRTGSFMTLITDDTNKIYSYGRFDNVNRIAVVLNNDSVSHTVNVPVWQLSMPNGSTVTDKITGHSYTVQNGMVTVAVDGHYGAVLAQ | soluble |
| AAPTAIEHMEPPFWWAGMQHKGLQLMVHGRDIGRMEAALDYPGVRLVSPTRVPNANYLFVDLEIGPEAQPGSFDIVFKGDGRSERYRYRLLAREQGSAQRQGFGPGDAIYQIMPDRFANGDPSNDNVAGMREQADRRHGGGRHGGDIRGTIDHLDYIAGLGFTQLWPTPLVENDAAAYSYHGYAATDHYRIDPRYGSNEDFVRLSTEARKRGMGLIQDVVLSHIGKHHWWMKDLPTPDWINYGGKFVPTQHHRVAVQDPYAAQADSENFTKGWFVEGMPDLNQTNPLVANYLIQNNIWWIEYAGLSGLRIDTYGYSDGAFLTEYTRRLMAEYPRLNMVGQEWSTRVPVVARWQRGKANFDGYTSHLPSLMDFPLVDAMRNALSKTGEENGLNEVYETLSLDYLYPEPQNLVLFGGNHDMARMFSAAGEDFDRWRMNLVFLMTMPRIPQFYSGDEILMTSTVKGRDDASYRRDFPGGWAGDKANAFSGAGLTSQQRAAQDLVRKLANWRKNQPVIHNGRLMHFGPEENTWVYFRYNKDKRIMVAMNNNDKPMTLPTARFQEMLKGAPSGVDFLSGKTVGLGRELRLAPKSVVVIELPGLPEA | soluble |
| AAQEKVVKLKIVQTSDVHGNYYPYNFITRKDWQGSLARIYAFVEKEREQYKENLILLDNGDILQGQPTAYYYNYIDTVSPHLCAEMMNYMKYDAGNMGNHDVETGRAVFDRWINTCDFPVLGANIIDISTGEPHLPPYKVMERDGVKIVILGMITPAIPAWLSENLWKGLRFDDMEETARKWMKIIREKENPDLMIGLFHAGQEAFKMSGKYNENASLSVAKNVPGFDIVLMGHDHARECKKVMNVAGDSVLVIDPASNGIVLSNIDVTLKLKDGKVRSKDIKGVLTETKDYGISEDFMKNFAPQYDTVRNFVSK | not soluble |
| AASSAQCDFGGPFQAYKSVNGPGNGGYYLRKTTKPGTPECAYVLVPQNTLSEGQSTSFTYGKLQNGQMIQLTATVTVNGDKIEVTGAGQDLSGTTTVLFSDYRSCDVMRGPDGNYELWVHSSAINLQSYGCCDTKFAQVAGGRPIHHTWQTYCPPLP | soluble |
| AASWSHPQFEKGAETAVPNSGGGELFATHCAGCHPQGGNTVHPEKTLARARREANGIRTVRDVAAYIRNPGPGMPAFGEAMIPPADALKIGEYVVASFP | soluble |
| AATQTWTGDLAIVTIPFSSLRFVKVTPPFSYKKRRAVIETHYDQATKVLLEFSRRWWEFTEADWKRELDAIAPGLYDYYQQWGEDDAEAALALPQSVRNLPTGLLGAHPSVDESRIGEEQVEYYRNSELR | soluble |
| ADKKLVVATDTAFVPFEFKQGDLYVGFDVDLWAAIAKELKLDYELKPMDFSGIIPALQTKNVDLALAGITITDERKKAIDFSDGYYKSGLLVMVKANNNDVKSVKDLDGKVVAVKSGTGSVDYAKANIKTKDLRQFPNIDNAYMELGTNRADAVLHDTPNILYFIKTAGNGQFKAVGDSLEAQQYGIAFPKGSDELRDKVNGALKTLRENGTYNEIYKKWFGTEPK | soluble |
| AEDRSLQAEPWFFGAIKRADAEKQLLYSENQTGAFLIRESESQKGDFSLSVLDEGVVKHYRIRRLDEGGFFLTRRKVFSTLNEFVNYYTTTSDGLCVKLEKPCLKIQV | soluble |
| AEKANQVSNIKTQLAMEYMRGQDYRQATASIEDALKSDPKNELAWLVRAEIYQYLKVNDKAQESFRQALSIKPDSAEINNNYGWFLCGRLNRPAESMAYFDKALADPTYPTPYIANLNKGICSAKQGQFGLAEAYLKRSLAAQPQFPPAFKELARTKMLAGQLGDADYYFKKYQSRVEVLQADDLLLGWKIAKALGNAQAAYEYEAQLQANFPYSEELQTVLTGQ | soluble |
| AEKRNIFLVGPMGAGKSTIGRQLAQQLNMEFYDSDQEIEKRTGADVGWVFDLEGEEGFRDREEKVINELTEKQGIVLATGGGSVKSRETRNRLSARGVVVYLETTIEKQLARTQRDKKRPLLHVETPPREVLEALANERNPLYEEIADVTIRTDDQSAKVVANQIIHMLESN | soluble |
| AEMKTDAATLAQEAGNFERISGDLKTQIDQVESTAGSLQGQWRGAAGTAAQAAVVRFQEAANKQKQELDEISTNIRQAGVQYSRADEEQQQALSSQMGF | soluble |
| AENAKIKFDGVDVERDSNVINDLVPNVTLSLKKPSSDMVEAKIEPDYEGIKRVLLDFIGAYNEVLAEINIVSSNEDQPNNQKSNIVEELTYLSDSQKEEAYKNLGILRSEFLLKNLKSKLESIIFKPYVTSDPNFSIINQMGVFTNSISSSGGLSRYLRLDEKKFDESIRNNIDNVRELFLYDLNGDRVYDNGIAKMLGDCLSPLVASGGVIYNKIKNYDLKIFNQKNKVEDYKKKYEDRERKVEGELNTLDFTVKRMKD | not soluble |
| AESESFVLDFSQPSADYLDFRNRLQADHVCLENCVLKDKAIAGTVKVQNLAFEKTVKIRMTFDTWKSYTDFPCQYVKDTYAGSDRDTFSFDISLPEKIQSYERMEFAVYYECNGQTYWDSNRGKNYRIIRAELKSTQGMTKPHSGPDLG | soluble |
| AEVNDPRVGFVAVVTFPVDGPATQHKLVELATGGVQEWIREVPGFLSATYHASTDGTAVVNYAQWESEQAYRVNFGADPRSAELREALSSLPGLMGPPKAVFMTPRGAILPS | soluble |
| AFTMEIPPTHYAASRAASVAENCINYQQGTPHKLFLVQTVQQASKEDIPGRGHKYHLKFSVEEIIQKQVTVNCTAEVLYPQMGQGSAPEVNFTFEGEIGKNPDEEDNTFYQSLMSLKRPLEAQDIPDNFGNVSPQMKPVQHLAWVACGYVMWQNSTEDTWYKMLKIQTVKQVQRNDDFIELDYTILLHDIASQEIIPWQMQVLWHPQYGTKVKHNSRLPKEGQAE | soluble |
| AGSMEDIPVEEAVLTGVATDNSEAKITVLGIPDSPGSASAVFRALADAEINIDTVLQNISSLEDNRTDITFTCPRADGPHAMELLRNLQAKNDWQNVLYDDQIGKVSLVGAGMKSHPGVTAEFCEALRDAGVNIELISTSEIRISVLIRESDVDVAARAIHEKFELGGETEAIVYAGTGR | not soluble |
| AHHHHHHGSAVRLKTPLTWEDIRDLEIGDRVLLSGIVYTARDLAHRRFLEEGFPFNPEGAVIYHCGPLIKNGIVVSAGPTTSARMEKYLDFLFNRGVRGVIGKGGMNHEKFKGRAVYFSYPGGAGSLAREFIVKVRDVYWEDLGMTDAVWELEVRDMPLLVSIDSKGRSLYRKN | soluble |
| AHHHHHHGSGEKRKTRQAEVNIGMVGHVDHGKTTLTKALTGVWTDTHSEELRRGITIKIGFADAEIRRCSNCGRYSTSPICPYCGHETEFIRRVSFIDSPGHEALMTTMLAGASLMDGAILVIAANEPCPRPQTREHLMALQIIGQKNIIIAQNKIELVDKEKALENYRQIKEFIKGTVAENAPIIPISALHGANIDVLVKAIEEFIPTPKRDSNKPPKMLVLRSFDVNKPGTPPEKLVGGVLGGSIVQGKLKVGDEIEIRPGVPYEEHGRIKYEPITTEIVSLQAGGQFVEEAYPGGLVGIGTKLDPYLTKGDLMAGNVVGKPGKLPPVWTDLRLEVHLLERVVGTEQELNVEPIKRKEVLLLNVGTARTMGLVTALGKDEIELKLQIPVCAEPGERVAISRQIGSRWRLIGYGIIKE | not soluble |
| AHHHHHHGSGGMTIAEKILATHAGKEEVKPGEIVLAKVDFMFGNDVTTPLAIKTFRKIGVEKVFDPERIAIVLDHFTPNKDIKAAEQCKFSREFAREQGIKWFFEGGNVGVEHCLLPELGLVLPGELIIGADSHTCTYGALGAFATGVGSTDLAVAMATGEAWFRVPETIKFVYEGDLQPWVTSKDLILYTIGDIGVNGALYKVMEFSGEVIEKLSVEQRMTMTNMAIEAGAKTGIIEPDKKTIEYVKGRAKREYKIYKSDEDAKYYKVIEYDVSKIEPQVAFPHLPENTVPISKAAKMNIKIDQVVIGSCTNGRLEDLRMAAEVLEGQKVAPWVRLIILPCSPTVYFKAMKEGLLEIFLEAGAVIGPPTCGPCLGGHMGILASGERAVSTTNRNFVGRMGHPKSEVYLASPYVAAASAILGRIASPEEVVK | soluble |
| AHHHHHHGSKAPICEVCLKTEDILCPADEKKLEEGIITELDVKISRMLYKLLGDADVEFKKAVEAGDLIVLIVGEGDVPIVIGKGGKNIKYLTRELGKRVRVIESTDDVKKLAVDLLYPAGVFGVNVVYKPDGGQYYKVLVFSRDKSKLPEKSEVLESILTQITGVETKISFI | soluble |
| AHHHHHHGSKILAIAPNISRPYLGPAAVVHNTLKGFIKINKELEREDIEITFLSINDKIKSKKLTDNINIIGTKRFPPVTFTGEIQALFVSRKLEKPDLVHSHDLYEIFPWILKKIPTIFTLHGIVWKEKMFTKSLYAKLWYYLYEKRLRAYHKKFTKFVAISP | not soluble |
| AHHHHHHGSKKFPAYLASWEDIENWAKAGAWKVLESGWMPDVIVGLARGGWIAARLYCDYLGVKDLVSIKVEHWGVTATPDGRARLKYGAQYDFEGKKVLIVDDITDTGESMSLAYEYMKSRNPAEIRTATLLNIKGSKFVPDYYAKDIDWVWVVFPWNFVEDMINLTNNLFEEKDKLTTDEIISLFKELHGIEVPREKLEEALRMAEKRKIFKFENGFWTKV | soluble |
| AHHHHHHGSNTEKYLAKGLEDVYIDQTNICYIDGKEGKLYYRGYSVEELAELSTFEEVVYLLWWGKLPSLSELENFKKELAKSRGLPKEVIEIMEALPKNTHPMGALRTIISYLGNIDDSGDIPVTPEEVYRIGISVTAKIPTIVANWYRIKNGLEYVPPKEKLSHAANFLYMLHGEEPPKEWEKAMDVALILYAEHEINASTLAVMTVGSTLSDYYSAILAGIGALKGPIHGGAVEEAIKQFMEIGSPEKVEEWFFKALQQKRKIMGAGHRVYKTYDPRARIFKKYASKLGDKKLFEIAERLERLVEEYLSKKGISINVDYWSGLVFYGMKIPIELYTTIFAMGRIAGWTAHLAEYVSHNRIIRPRLQYVGEIGKKYLPIELRR | not soluble |

— the DeepSol protein solubility set
